According to IntAct's records for PubMed 29039417:

B1: BBSome complex member BBS1 (Homo sapiens), Q8NFJ9 (parent)
chain: MAAASSSDSDACGAESNEANSKWLDAHYDPMANIHTFSACLALADLHGDGEYKLVVGDLGPGGQQPRLKVLKGPLVMTESPLPALPAAAATFLMEQHEPRTPALALASGPCVYVYKNLRPYFKFSLPQLPPNPLEQDLWNQAKEDRIDPLTLKEMLESIRETAEEPLSIQSLRFLQLELSEMEAFVNQHKSNSIKRQTVITTMTTLKKNLADEDAVSCLVLGTENKELLVLDPEAFTILAKMSLPSVPVFLEVSGQFDVEFRLAAACRNGNIYILRRDSKHPKYCIELSAQPVGLIRVHKVLVVGSTQDSLHGFTHKGKKLWTVQMPAAILTMNLLEQHSRGLQAVMAGLANGEVRIYRDKALLNVIHTPDAVTSLCFGRYGREDNTLIMTTRGGGLIIKILKRTAVFVEGGSEVGPPPAQAMKLNVPRKTRLYVDQTLREREAGTAMHRAFQTDLYLLRLRAARAYLQALESSLSPLSTTAREPLKLHAVVQGLGPTFKLTLHLQNTSTTRPVLGLLVCFLYNEALYSLPRAFFKVPLLVPGLNYPLETFVESLSNKGISDIIKVLVLREGQSAPLLSAHVNMPGSEGLAAA
partner: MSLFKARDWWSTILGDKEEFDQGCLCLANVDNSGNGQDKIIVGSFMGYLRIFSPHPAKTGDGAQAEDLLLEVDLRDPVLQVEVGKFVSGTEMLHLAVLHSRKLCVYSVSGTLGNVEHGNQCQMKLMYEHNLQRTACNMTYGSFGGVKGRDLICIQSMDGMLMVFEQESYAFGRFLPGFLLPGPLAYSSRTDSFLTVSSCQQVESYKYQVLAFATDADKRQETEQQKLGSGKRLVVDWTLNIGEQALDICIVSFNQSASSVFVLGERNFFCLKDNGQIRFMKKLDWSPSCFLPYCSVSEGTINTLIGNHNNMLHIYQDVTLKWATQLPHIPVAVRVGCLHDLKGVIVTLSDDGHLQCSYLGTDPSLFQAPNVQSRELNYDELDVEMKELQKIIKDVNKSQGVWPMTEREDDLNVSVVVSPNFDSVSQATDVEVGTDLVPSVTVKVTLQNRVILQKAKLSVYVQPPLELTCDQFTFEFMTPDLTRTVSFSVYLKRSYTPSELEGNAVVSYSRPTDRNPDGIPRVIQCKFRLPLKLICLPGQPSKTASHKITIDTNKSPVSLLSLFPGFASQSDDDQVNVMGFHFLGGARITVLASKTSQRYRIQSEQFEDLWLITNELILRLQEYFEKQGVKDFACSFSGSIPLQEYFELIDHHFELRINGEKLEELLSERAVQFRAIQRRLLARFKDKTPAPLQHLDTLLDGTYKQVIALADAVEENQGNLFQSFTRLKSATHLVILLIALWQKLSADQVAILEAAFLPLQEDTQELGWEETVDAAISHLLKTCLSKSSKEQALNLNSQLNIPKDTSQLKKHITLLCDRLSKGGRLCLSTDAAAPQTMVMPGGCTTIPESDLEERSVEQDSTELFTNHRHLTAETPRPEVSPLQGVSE

Variants of: B1
Conditions: with pthb1_human BBS9, Q3SYG4
T446K was tested, and the “effect of a mutation on the interaction” value was “with no effect”. In the case of G416K, the “effect of a mutation on the interaction” value is reported as “with no effect”. For Q469K, the “effect of a mutation on the interaction” value was “with no effect”. For P428K, the “effect of a mutation on the interaction” value was “with no effect”. For S509L, the “effect of a mutation on the interaction” value was “disrupting interaction strength”. L456A was tested, and the “effect of a mutation on the interaction” value was “with no effect”. With V514K the “effect of a mutation on the interaction” value was “with no effect”. With E553A the “effect of a mutation on the interaction” value was “with no effect”. In the case of E571K, the “effect of a mutation on the interaction” value is reported as “with no effect”. In the case of E571A, the “effect of a mutation on the interaction” value is reported as “with no effect”. A464E was tested, and the “effect of a mutation on the interaction” value was “with no effect”. G445E was tested, and the “effect of a mutation on the interaction” value was “with no effect”. Y546E was tested, and the “effect of a mutation on the interaction” value was “disrupting interaction strength”. L468A was tested, and the “effect of a mutation on the interaction” value was “with no effect”. With L515A the “effect of a mutation on the interaction” value was “with no effect”. For L515E, the “effect of a mutation on the interaction” value was “with no effect”. With L530Q the “effect of a mutation on the interaction” value was “disrupting interaction strength”. R462E was tested, and the “effect of a mutation on the interaction” value was “with no effect”. E443K was tested, and the “effect of a mutation on the interaction” value was “with no effect”. For D436K, the “effect of a mutation on the interaction” value was “with no effect”. In the case of V537A, the “effect of a mutation on the interaction” value is reported as “with no effect”. For V537E, the “effect of a mutation on the interaction” value was “disrupting interaction strength”. With A447E the “effect of a mutation on the interaction” value was “with no effect”. For A420K, the “effect of a mutation on the interaction” value was “with no effect”. With K536A the “effect of a mutation on the interaction” value was “with no effect”. N557A was tested, and the “effect of a mutation on the interaction” value was “with no effect”. In the case of L478A, the “effect of a mutation on the interaction” value is reported as “with no effect”. In the case of L478E, the “effect of a mutation on the interaction” value is reported as “with no effect”. For K424E, the “effect of a mutation on the interaction” value was “with no effect”. M423A was tested, and the “effect of a mutation on the interaction” value was “with no effect”. R570K was tested, and the “effect of a mutation on the interaction” value was “with no effect”. In the case of R570A, the “effect of a mutation on the interaction” value is reported as “with no effect”. In the case of S554K, the “effect of a mutation on the interaction” value is reported as “with no effect”. For T550K, the “effect of a mutation on the interaction” value was “with no effect”. T550A was tested, and the “effect of a mutation on the interaction” value was “with no effect”. L495E was tested, and the “effect of a mutation on the interaction” value was “with no effect”. For K430M, the “effect of a mutation on the interaction” value was “disrupting interaction strength”. In the case of A463E, the “effect of a mutation on the interaction” value is reported as “disrupting interaction strength”. I563E was tested, and the “effect of a mutation on the interaction” value was “with no effect”. I563K was tested, and the “effect of a mutation on the interaction” value was “with no effect”. With G586R the “effect of a mutation on the interaction” value was “disrupting interaction strength”. Q506E was tested, and the “effect of a mutation on the interaction” value was “with no effect”. For L539E, the “effect of a mutation on the interaction” value was “disrupting interaction strength”. With I560E the “effect of a mutation on the interaction” value was “with no effect”. In the case of I560K, the “effect of a mutation on the interaction” value is reported as “with no effect”. With K565A the “effect of a mutation on the interaction” value was “with no effect”. With L548A the “effect of a mutation on the interaction” value was “with no effect”. In the case of A466K, the “effect of a mutation on the interaction” value is reported as “with no effect”. For V492A, the “effect of a mutation on the interaction” value was “with no effect”. Q573A was tested, and the “effect of a mutation on the interaction” value was “with no effect”. L501E was tested, and the “effect of a mutation on the interaction” value was “disrupting interaction strength”. For V415E, the “effect of a mutation on the interaction” value was “with no effect”. With N583K the “effect of a mutation on the interaction” value was “with no effect”. In the case of S587E, the “effect of a mutation on the interaction” value is reported as “with no effect”. For F452K, the “effect of a mutation on the interaction” value was “with no effect”. With F452A the “effect of a mutation on the interaction” value was “with no effect”. In the case of L503K, the “effect of a mutation on the interaction” value is reported as “disrupting interaction strength”. In the case of L527P, the “effect of a mutation on the interaction” value is reported as “disrupting interaction strength”. L527K was tested, and the “effect of a mutation on the interaction” value was “with no effect”. For S473K, the “effect of a mutation on the interaction” value was “with no effect”. Q453E was tested, and the “effect of a mutation on the interaction” value was “with no effect”. In the case of C520E, the “effect of a mutation on the interaction” value is reported as “with no effect”. For S579K, the “effect of a mutation on the interaction” value was “with no effect”. T481A was tested, and the “effect of a mutation on the interaction” value was “with no effect”. For Q437A, the “effect of a mutation on the interaction” value was “with no effect”. For M448K, the “effect of a mutation on the interaction” value was “with no effect”. With Y467K the “effect of a mutation on the interaction” value was “with no effect”. For G589K, the “effect of a mutation on the interaction” value was “with no effect”. In the case of Y457A, the “effect of a mutation on the interaction” value is reported as “with no effect”. For Y457K, the “effect of a mutation on the interaction” value was “with no effect”. R450K was tested, and the “effect of a mutation on the interaction” value was “with no effect”. In the case of R450E, the “effect of a mutation on the interaction” value is reported as “with no effect”. R450A was tested, and the “effect of a mutation on the interaction” value was “with no effect”. With S476A the “effect of a mutation on the interaction” value was “with no effect”. R440A was tested, and the “effect of a mutation on the interaction” value was “with no effect”. With P419K the “effect of a mutation on the interaction” value was “with no effect”. P419E was tested, and the “effect of a mutation on the interaction” value was “with no effect”. For P547E, the “effect of a mutation on the interaction” value was “with no effect”. For P547K, the “effect of a mutation on the interaction” value was “with no effect”. With H504K the “effect of a mutation on the interaction” value was “with no effect”. For A526E, the “effect of a mutation on the interaction” value was “with no effect”. In the case of E472A, the “effect of a mutation on the interaction” value is reported as “with no effect”. With P513K the “effect of a mutation on the interaction” value was “with no effect”. For P513E, the “effect of a mutation on the interaction” value was “with no effect”. L425A was tested, and the “effect of a mutation on the interaction” value was “with no effect”. For S474A, the “effect of a mutation on the interaction” value was “with no effect”. With Y434A the “effect of a mutation on the interaction” value was “with no effect”. With N545A the “effect of a mutation on the interaction” value was “with no effect”.
